Reference: publication PMC12416549 (2024)
Substitutions are numbered along the chain they refer to. In names and notes the source's numbering stands.

B1: E99I (designed binder)
chain: MTLQELLREEALRRAEAEAFRYALELLAEKFPEQKEYLLDLAEEIESQIRSLSGVDVEDVRKFLDKEWAWVKELLAEHPAELAEVEAARAARLAELRAIVEAKVAA
B2: V71D (designed binder)
chain: B1 chain with V71D, I99E
B3: Y37I (designed binder)
chain: B1 chain with Y37I, I99E
B4: L39H (designed binder)
chain: B1 chain with L39H, I99E
B5: R89I (designed binder)
chain: B1 chain with R89I, I99E
B6: L6V (designed binder)
chain: B1 chain with L6V, I99E
B7: D56A (designed binder)
chain: B1 chain with D56A, I99E
B8: L12V (designed binder)
chain: B1 chain with L12V, I99E
B9: A87F (designed binder)
chain: B1 chain with A87F, I99E
B10: V60T (designed binder)
chain: B1 chain with V60T, I99E
B11: T2K (designed binder)
chain: B1 chain with T2K, I99E
B12: E43D (designed binder)
chain: B1 chain with E43D, I99E
B13: A83P (designed binder)
chain: B1 chain with A83P, I99E
B14: A19I (designed binder)
chain: B1 chain with A19I, I99E
B15: A76N (designed binder)
chain: B1 chain with A76N, I99E
B16: E10L (designed binder)
chain: B1 chain with E10L, I99E
B17: A106F (designed binder)
chain: B1 chain with I99E, A106F
B18: L24G (designed binder)
chain: B1 chain with L24G, I99E
B19: E46V (designed binder)
chain: B1 chain with E46V, I99E
B20: E18D (designed binder)
chain: B1 chain with E18D, I99E
B21: R50G (designed binder)
chain: B1 chain with R50G, I99E
B22: A102L (designed binder)
chain: B1 chain with I99E, A102L

Molecular target: T1, TNFR1 (Homo sapiens, UniProt P19438)
T1 chain: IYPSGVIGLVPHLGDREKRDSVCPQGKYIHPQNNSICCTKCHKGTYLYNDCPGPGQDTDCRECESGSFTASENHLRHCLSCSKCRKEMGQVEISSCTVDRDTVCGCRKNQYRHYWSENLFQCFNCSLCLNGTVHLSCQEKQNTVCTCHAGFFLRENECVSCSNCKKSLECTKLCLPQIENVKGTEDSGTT
Assay: yeast display SC50

Binder | apparent Kd (screen) [nM]
B1 | 0.49
B2 | 29.5
B3 | 22.2
B4 | 2.48
B5 | 0.653
B6 | 2.48
B7 | 2.05
B8 | 0.539
B9 | 0.79
B10 | 0.539
B11 | 0.718
B12 | 0.79
B13 | 1.27
B14 | 0.956
B15 | 0.49
B16 | 0.539
B17 | 0.718
B18 | 1.4
B19 | 0.49
B20 | 0.718
B21 | 1.05
B22 | 0.79
